Experimental data as given in patent US20090142300A1.

Target: T1, wild-type Toll-like receptor 3 (TLR3), homo sapiens (homo sapiens) (UniProt O15455)
T1 sequence: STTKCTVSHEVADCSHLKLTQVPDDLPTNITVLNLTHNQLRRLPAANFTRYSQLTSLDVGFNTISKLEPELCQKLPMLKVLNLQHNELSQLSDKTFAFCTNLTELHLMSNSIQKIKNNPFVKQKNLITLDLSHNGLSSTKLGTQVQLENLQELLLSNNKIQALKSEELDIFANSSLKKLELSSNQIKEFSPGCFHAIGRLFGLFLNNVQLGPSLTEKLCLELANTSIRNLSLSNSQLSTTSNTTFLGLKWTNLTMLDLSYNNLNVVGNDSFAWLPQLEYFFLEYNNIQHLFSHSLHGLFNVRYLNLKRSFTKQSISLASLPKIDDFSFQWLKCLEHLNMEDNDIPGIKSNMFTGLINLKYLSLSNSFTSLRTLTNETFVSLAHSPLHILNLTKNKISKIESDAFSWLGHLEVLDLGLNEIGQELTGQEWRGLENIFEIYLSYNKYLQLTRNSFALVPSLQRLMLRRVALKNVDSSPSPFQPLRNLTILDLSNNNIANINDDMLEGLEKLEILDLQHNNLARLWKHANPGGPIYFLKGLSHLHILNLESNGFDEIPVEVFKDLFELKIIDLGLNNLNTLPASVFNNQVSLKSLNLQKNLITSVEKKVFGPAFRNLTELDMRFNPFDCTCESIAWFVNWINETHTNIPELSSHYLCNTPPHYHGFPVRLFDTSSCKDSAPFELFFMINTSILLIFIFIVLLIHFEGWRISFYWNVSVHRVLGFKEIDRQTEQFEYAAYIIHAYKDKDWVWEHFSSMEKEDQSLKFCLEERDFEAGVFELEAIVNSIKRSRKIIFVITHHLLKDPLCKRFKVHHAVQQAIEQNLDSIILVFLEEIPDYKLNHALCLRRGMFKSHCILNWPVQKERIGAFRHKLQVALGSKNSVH
Test: cell-based or functional assay

| Substance | wild-type TLR3 activity with the mutant at six molar excess of WT (dominant negative assay) [%] | other results |
| --- | --- | --- |
| TLR3 mutant H539E (from UniProt O15455 24-904) (receptor) | 16 |  |
| TLR3 mutant N466A (from UniProt O15455 24-904) (receptor) | 17 |  |
| K467EΔTIR, TLR3 mutant K467E lacking the TIR domain (from UniProt O15455 24-753) (receptor) |  | wild-type TLR3 activity with the mutant at six fold molar excess (dominant negative assay): 27% |
| TLR3 mutant C696A (from UniProt O15455 24-904) (receptor) | 76 |  |
| TLR3 mutant C37A (from UniProt O15455 24-904) (receptor) | 61 |  |
| ΔTIR, dominant negative version of TLR3 that lacks the TIR domain (from UniProt O15455 24-753) (receptor) | 14 | wild-type TLR3 activity (NF-kB luciferase reporter, poly(I:C) induced) with the mutant at 2-fold molar excess, relative to empty vector: 26%; wild-type TLR3 activity (NF-kB luciferase reporter, poly(I:C) induced) with the mutant at 6-fold molar excess, relative to empty vector: 12% |
| TLR3 mutant E442K (from UniProt O15455 24-904) (receptor) |  | wild-type TLR3 activity with the mutant at six molar excess to the WT (dominant negative assay): 51% |
